# Reference: the nanobody polyreactivity screen of Harvey et al. (2022)
# Experiment: yeast display, Sf9 membrane polyspecificity reagent, FACS + sequencing; frameworks hold sequencing errors
# Outline: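 Genes from sorted yeast were amplified by colony PCR, read by MiSeq 2 × 250 sequencing and filtered on CDR length. These cells carried a synthetic nanobody library in Saccharomyces cerevisiae BJ5465 and were sorted by FACS into low and high (top ~1%) gates on anti-HA and streptavidin fluorescence. Polyreactivity is labelled according to the gate of origin.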
row,Sequence,polyreactivity (PSR sort gate)
1,QVQLVESGGGLDQAGGSLRLSCAASGIIFSSYAMGWYRQAPGKERELVAAISYSGGSTYYADSVKGRFTISRDNAKNTVYLQMNSLKPEDTAVYYCAAQGYSPGGYDYWGQGTQVTVSS,low polyreactivity
2,QVQLVESGGGLLQAGGSLRLSCAASGIIFFYYSMGWYRQAPGKERELVAAISSDGSTYYADSVKGRFTSSRDNAKNTVYLQMNSLKPEDTAVDYCAAQYNHWWEYDYWGQGTQVTVSS,low polyreactivity
3,QVQLVESGGGLVQAGGSLRLSCASSGITFGYYAMGWYRQAPGKESELGAARSGSGGSTYYADSVKGRFTISRDNAKNTVSLQMNSLKPEDTAVYDCAAEGPSNTLYWFSWEDYWGQGTQVTVSS,high polyreactivity
4,QVQLVESGGGLVQAGGSLRLSCAASGGTFRYNAMGWYRQAPGKERELVAAISRSGGSTHYADSVKGRFTISRDNAKNTVYLQMNSLKPEDTAVYYCAATVTFVPSRAGFYKYNYWGQGTQVTVSS,high polyreactivity
5,QVQLVESGGGLVQAGGSLRLSCAASGLNQANYAMVWYRQAPGQEREMVAAISSSGGSTYYADSVKGRFTISRDNAKNTVYLQMNSLKPEDTAVYYCAAYPLYRRSWTGDYWGQGTQVTVSS,high polyreactivity
6,QFQLVESGGGLVQAGGSLRLSCAASGSTFGYYAMGWYRQAPGKERELVAAISWSGDSTYYADSVKGRFSISRDNAKNTVYLQMNSLKPEDTAVYYCAAEVEYGYDYWGQGTQVTVSS,high polyreactivity
7,QVQLVESGGGLVQAGGSLRLSCAASGITLYFYARGWYRQAPGKERELVAAISRGGRTYYADSVKGRFTISRDNAKNTVYLQMNSLKPEDTAVYDCAARYTSEYSAFDYWGQGTQVTVSS,low polyreactivity
8,QVQIVESGGGLVQAGGSLRVSCAASGITFGNYDMGWYRQAPGKERELVAAITGSGGRTYYADSVKGRFTISRDNEKNTVYLQMNSLKPEDTAVYYCNRRQYGRKKQYDYWGQGTQVTVSS,high polyreactivity
9,QVQLQESGGGLVQAGGSLRPSCAASGSISDGVPMGWYRQAPGEERELVATTVLGATTNYADSVKGRFTISRGNAKYTVYLQMNSLKPEETAVYYCAAPLRYDKGFSYWGQGTQVTVSS,low polyreactivity
10,QVQLVESGGGLVQAGGSLRLSCAASGSTFRVNVMGWYRQATGKERELVAAITTSGGSTYYADSVKGRFSISRDNAQNTVYFQMNSLKPEDTAVYYCNTTYPSGWGPDMDYWGQGTQVTVSS,low polyreactivity
11,QVQLVESGGGLVQAGGSLRLSCAASGRIFYANAMGWYRQAPGKERELVAGISSGGITNYADSVKGRFTISRDNAKNTVYLQMNSLKPEDTAVYYCAVESWNRWRNRNDYWGQGSQVTVSS,low polyreactivity
12,QVQLVESGGGLVQAGGSLRLSCAASGSTFYRNAMGWYRPAPGKERELVAAINSTDSTNYADSVKGRFTISRDNAKNTVYLQMNSLKPEDTAVYYCAAVGDNLATAEYDYWGQGTQVTVSS,low polyreactivity
13,QVQLVESGGGLVQAGGSLRLSCAASGITFYRYAMRWYRQAPGKERELVAAISRSGGSTYYADSVKGRFTISRDNAKNTVYLQMNILKPEDTAVYYCAAYILGNRDGYDYWGQGTQVTVSS,high polyreactivity
14,QVQLVETVGGLLQAGGSLRLSCPASGSTLYYNTMGWYRQAPGKERELVATISSRGGRTHYADSVKGRFTISRDNAKNTVYLQMNSLKPEDTAVYYCNALPRVVYTVGQSPFYYWGQGTQVTVSS,high polyreactivity
15,QVQLVESGGGLVQAGGSLRLSCAASGSTFDINAMGWYRQAPGKERELVAAITWRSGRTYYADSVKGRFTISRDNAKNNVYLQMNSLKPEDTAVYYCAADDTSYYIYSYDYWGQGTQVTVSS,low polyreactivity
16,QVQLVESGGGLVQAGGSLRLSCAASGRIFFLYAMGWYRQAPGKERELVASITRRGGSTYYADSVKGRFTISRDNAKNTVYLQMNSLKPEDTAVYYCAAELYRSNVYHYDYWGQGTQVTVSS,high polyreactivity
17,QVQLVESGGGLVQAGGSLRLSCAASGGIFVYNMGWYRQAPGKERELVAAISVSGGSTYYADSVKGRFTISRDNAKNTVYLQMNSLKPEDTAVYYCAASRPPYRDDYWGQGSQVTVSS,high polyreactivity
18,QVQLVESGGGLVQAGGSLRLSCAASGRTFDSNAMGWYRQAPGKERELVAAISYSGGSTYYADSVKGRFTISRDNAKNTVYLQMNSLKPEDTAVYYCNAGDVHKKPARDYWGQGTQVTVSS,low polyreactivity
19,QVQLVESGGGLVQAGGSLRLSCAASGRTLFRYAMGWYRQAPGKERELVAAISRSGGTTYYADSVKGRFTISRDNAKNTVYLQMNSLKPEDTAVYYCAARFVLRRDYGYWGQGTQVTVSS,high polyreactivity
20,QVQLVESGGGLVKAGGSLRLSCAASGSTYQTYAMGWYRHAPGKERELVAAISFNGGSTYYADSVKGRFTISRDNAKNTVYLQMNSLKPEDTAVYYCAVEYTWASALYDGRHDYWGQGTQVTVSS,high polyreactivity
21,QVQLVESGGGLVQAGGSLRLSCAASGFTFSSYARGWYRQAPGKEREFVAAIRFSGGSTYYADSVKGRFTISRDNAMNTVYLQMNSLKPVDTAVYYCAKRWGIWPRGYYWGQGTQVSVSS,low polyreactivity
22,QVQLVESGGGLVQAGGSLRISSAASGFTFTPNAKGWYRQAPGKERELVAVITWNGGTTYYADSVKGRFTISRDNAQNTVYLQMNSLKPEDTAVYYCNADGLILYDYWGHGTQVTVSS,low polyreactivity

row,Sequence,polyreactivity (PSR sort gate)
1,QVQLVESGGGLVQAGGSLRLSCAASGCIFASYPMGWYRPAPGTERELVAAISRAGSTYYADSVKGRFTISRDNAKNTDYLQMNSLKPEDTAVYYCNADFNWGYNYWGQGTQVTGSS,high polyreactivity
2,QVQLVESGGGLVQAGGSLRLSCAASGRTFENYAMGWYRQAPGKERELVAAISKSGGSTYYADSVKGRFTISRDNAKNTVYLQMNSLKPEDTAVYYCATRLTSAVGRYLYDFGYWGQGTQVTVSS,high polyreactivity
3,QVQLVESGGGLVQAGGSLRLSCAASGSIFPWYAMGWYRQAPGKERELVAAITISGGSTHYADSEKGRFTISRDTAKNTVYLQLKSLKPEDTAVYYCAADFLPQSYNCYDYWGQGTQVTVSS,low polyreactivity
4,QVQVVESGAGLVQAGGSLRISCAASGRNFVANAMGWYRQAPGKERELVAAISIIGAGTYYADSVKGRFTISRDNAKITVYLQMNSLKPEDTAVYYCATQYGWYIFGYWGQGSQVTVSS,high polyreactivity
5,QVQLVESGGGLVQAGGSLRLSCAASGSTLVKYAMGWYRQAPGKERELVAAISWSGGRTYYADSVKGRFTISRDNAKNTVYLQMNSLKPEDTAVYYCAARSTRFYTPGYYYWGQGTQVTVSS,high polyreactivity
6,QVQLVESGGGLVQAGGSLRLSCAASGSTFVRNGMGWYRQSPGKVRELVASISGRGGSTYYADSVKGRFTISRDNAKNTVYLQMNSLKPEDTAVYYCAARKQRGGGPTFDYWGQGTQVTVSS,high polyreactivity
7,QVQLVESGGGLGQAVGRLRLSCAASGSTFDPNTMGWYRQAPGKERELVATITSVDSTNYADSVKGRFTISRDNAKNTVYLQMNSLKPEDTAVSYCNAAYGGVFFYAYDYWGQGTQVTVSS,low polyreactivity
8,QVQLVESGGGLVQAGGSLRLSCAASGRTFAKYAMAWYRQAPGKERELVAAINSSGGSTYYADSVKGRFTISRDNAKNTVYLQMNSLKPEDTAVYFCAALGIGSYRRYSGYDYWGQGTQVTVSS,low polyreactivity
9,QVQLEESGGGLVQAGGSLRLTCAASGRIFYRNSMGWYRQATGKERELVATISGRGGSTYYADSVKGRFTISRDNAKNTDYLQMNSLKPEDTAVYYCAVRNHGSVRWTGESWGQGTQVTVSS,high polyreactivity
10,QVQLVESGGGLVQAGGSLRLSCAASGSIFVSNAMGWYRQAPGTERELVAAISGGGSTYYADSVKGRFTISRDNAKNTVFLQMNSLKPEDTAVYYCAKKGGHRTYGYDSWGQGTQVTVSS,low polyreactivity
11,QVQLVESGGGLVQAGGSLRLSCAASGTLSSYAMGWYRQAAGKERELVAALSLSGGSTYADSVKGRFTISRDNAYNTVYLQMNSLKPEDTAVYYCAKDWDVDITWSFSIYNYWGQGTQVTVSS,low polyreactivity
12,QVQLVESVGGLVQAGGSLRLSCAASGFTFGRYAMGWYRQAPGKESELVATITRTGSTNYADSVKGRFTISRDNAKNTVYLQMNSLKPEDTAVYYCAKDWAYRRHWVGFYYWGLGTQVTVSS,low polyreactivity
13,QVQRVESGGGLVQAGGSLRISCAASGSITWYYSMGWYRQAPGKERELFAAISDSGGDKYYADSVKGRFTISRDNAKNTVYLQMNSLKPEDTAVYYCNARYSWYGTFGGDYWGQDTQVTVSS,low polyreactivity
14,QVQLVESGGGLVQAGGSLRLSCAASGNIFAVYAMGWYRQAPGKERELVAAISYSSTRTYYADSVKGRFRISRDNAKNTVYLQMNSLKPEDTAVYYCAVETWWDYDYWGQGTQVTVSS,high polyreactivity
15,QVQLVESGGGLVQAGGSLRLSCAASGFTFTPYGMGWYRQAPGKERALVAAITWNGGRTYYADSVKGRFTISRDNAKNTVYLQMNSLKPEDTAVDYCAAVAWSWQKRGYWGQGTQVTVSS,high polyreactivity
16,QVQLVESCGGLVHAGGSLRLSCAASGRSFYRYAMGWYRKAPGKERELVAAISSGGSTYYADSVKGRFTISRDNANNTDYLQMNSLKPEDTAVYYCNADYGRRIHMDYWGQGTQVTVSS,low polyreactivity
17,QVQLVESGGGLVQAGGSLRLICAASGFIFFINDMGWYRQAPGKERELVAAISWSCGSTYYADSVKGRFTISRDNAKNTVYLQMNSLKPEDTAVYYCNTDVPTAQYDYWGQGTQVTVSS,low polyreactivity
18,QVQLVESGGGLVQAGGSLRLSCAASGYTFSPNDMGWYRQAPGKERELVAAMTSSVGSTYYADSVKGRFTISRDNAKNTVFLQMNSLKPEDTAVFYCAADTWYLGYPDFWLDYWGQGTQVTVSS,low polyreactivity
19,QVQLVDSGGGLVQAGGSLRLSCAASGITFYRYTMGWYRQGPGKERELVATITSGASTSYADSVKGRFTISRDNAKNTVYLQMNCLKPEDTAVYYCAARRTRVTGRYSVYAFDYWGQGTQVTVSS,low polyreactivity
20,QVQLVESGGGLVQAGGSLRLSCAASGLTLYINAMGWYRQAPGKERELVAAIRTVGRTRYADSVKGRFTISRDNAKNTVYLQMNSLKPEDTAVYYCNARRYLRGYGYGYWGQGTQVTVSS,high polyreactivity
21,QVQLVETGGGLVQAGGSLRLSCAASVRIFFVYAMGWYRQAPGKERELVAAITYDDGDTFYADSVKGRFTISRDNAKNTVYLQMNSLKPEDTAVYYCAAEGYSYIQSDLDYWGQGTQVTVSS,high polyreactivity
